Results as given in US20090297470.

Experiments:
[1] = target: recombinant SDF-1α (1-68), full length, 7.97 kDa
Diprotin A (Ile-Pro-Ile) = target: T1, Diprotin A (Ile-Pro-Ile)
T1 chain: IPI

B1: CD26/dipeptidylpeptidase IV (DPP-IV), endogenous enzyme in heart lysates of wild type C57BL/6 mice (protein)
chain: MKTPWKVLLGLLGVAALVTIITVPIVLLSKDEAAADSRRTYSLADYLKSTFRVKSYSLWWVSDFEYLYKQENNILLLNAEHGNSSIFLENSTFESFGYHSVSPDRLFVLLEYNYVKQWRHSYTASYNIYDVNKRQLITEEKIPNNTQWITWSPEGHKLAYVWKNDIYVKVEPHLPSHRITSTGEENVIYNGITDWVYEEEVFGAYSALWWSPNNTFLAYAQFNDTGVPLIEYSFYSDESLQYPKTVWIPYPKAGAVNPTVKFFIVNIDSLSSSSSAAPIQIPAPASVARGDHYLCDVVWATEERISLQWLRRIQNYSVMAICDYDKINLTWNCPSEQQHVEMSTTGWVGRFRPAEPHFTSDGSSFYKIISDKDGYKHICHFPKDKKDCTFITKGAWEVISIEALTSDYLYYISNQYKEMPGGRNLYKIQLTDHTNVKCLSCDLNPERCQYYAVSFSKEAKYYQLGCWGPGLPLYTLHRSTDHKELRVLEDNSALDRMLQDVQMPSKKLDFIVLNETRFWYQMILPPHFDKSKKYPLLLDVYAGPCSQKADASFRLNWATYLASTENIIVASFDGRGSGYQGDKIMHAINRRLGTLEVEDQIEAARQFVKMGFVDSKRVAIWGWSYGGYVTSMVLGSGSGVFKCGIAVAPVSRWEYYDSVYTERYMGLPIPEDNLDHYRNSTVMSRAEHFKQVEYLLIHGTADDNVHFQQSAQISKALVDAGVDFQAMWYTDEDHGIASSTAHQHIYSHMSHFLQQCFSLH
[1]
  mass spectrometry of recombinant SDF-1 incubated with heart lysates (cleavage product peak): lysates derived from wt animals also showed high abundance of a second peak at 7.748 kDa corresponding to N-terminal cleavage of SDF-1α by DPP-IV
Diprotin A (Ile-Pro-Ile)
  proteolytic DPP-IV activity (H-Gly-Pro-AMC) in myocardium and serum 2 days after MI: Combined application of G-CSF and Diprotin A in wt mice ("G-CSF-DipA mice") lead to a decreased DPP-IV activity after MI only in the myocardium but not in the serum
